According to publication PMC8594541:

B1: 1-deoxy-D-xylulose 5-phosphate reductoisomerase (KpIspC) (Klebsiella pneumoniae subsp. pneumoniae MGH 78578) (protein)
chain: MKQLTVLGSTGSIGCSTLDVVRHNPGRFSVAALVAGKNVDRMVEQCLEFTPRYAVMDDAQSAERLRTRLHEHGSRTEVLSGQQAAAEVAALDEVDQVMAAIVGAAGLVPTLAAIRAGKTVLLANKESLVTCGRLFMEAVQQSGARLLPVDSEHNAIFQSMPETIQQHLGYADLAQNGVSSILLTGSGGPFRETAVAELAAMTPDQACRHPNWSMGRKISVDSATMMNKGLEYIEARWLFNASAQQMEVLIHPQSVIHSMVRYQDGSVLAQLGEPDMRTPIAHTMGWPQRLNSGVKPLDFCQLSNLSFSAPDYTRYPCLKLAMDAFDVGQAATTTLNAANEESVAAFLHGDIRFTDIAAVNLAVLDKMDLQEPQSIDDVLVIDAEARAIAHQQLQRLVAQA
B2: 1-deoxy-D-xylulose 5-phosphate reductoisomerase (AbIspC) (Acinetobacter baumannii AB307-0294) (protein)
chain: MTQSVCILGVTGSIGRSTLKILGQHPDKYSVFAVSAHSRISELVEICKQFRPKVVVVPEQKIAELKTLFAQQNISDIDVLAGQEGLVDIASHTDVDIVMAAIVGAAGLLPTLAAVKAGKRVLLANKEALVMSGEIMMQAARDHQALLLPVDSEHNAIFQSLPHNYLQADRTGQPQLGVSKILLTASGGPFLNHSLEQLVHVTPQQACKHPNWSMGQKISVDSATLMNKGLELIEACHLFSISEHFVTVVVHPQSIIHSMVQYVDGSTLAQMGNPDMCTPIAHALAWPERLQTNVPALDLFEYSQLNFQAPDTQKFPALNLARQAMRAGGLAPTILNAANEIAVEAFLMERIGFTSIPQVVEHTLEKLENAAAESIECILDKDKVARSVAQQYISSIGG

Columns and labels:
purified protein [1] = substrate: CC(=O)[C@@H](O)[C@H](O)COP(=O)(O)O; experiment: purified protein; format: biochemical, Klebsiella pneumoniae; conditions: NADPH, Mg2+
purified protein [2] = substrate: CC(=O)[C@@H](O)[C@H](O)COP(=O)(O)O; experiment: purified protein; format: biochemical, Acinetobacter baumannii; conditions: NADPH, Mg2+

| Protein | Km (purified protein [1]) [µM] | kcat (purified protein [1]) [s⁻¹] | Km (purified protein [2]) [µM] | kcat (purified protein [2]) [s⁻¹] |
| --- | --- | --- | --- | --- |
| B1 | 155.5 | 2.21 ± 0.06 |  |  |
| B2 |  |  | 127.6 | 1.92 ± 0.03 |
